Measurements: the nanobody polyreactivity screen of Harvey et al. (2022)

Test: yeast display, Sf9 membrane polyspecificity reagent, FACS + sequencing; frameworks hold sequencing errors
Outline: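 In a synthetic yeast display library (Saccharomyces cerevisiae BJ5465), nanobody expression was induced with galactose for 36–48 hours. FACS gates were set low and high (top ~1%) using anti-HA fluorescence for expression and streptavidin fluorescence for binding of the Sf9 membrane reagent. Each polyreactivity label is drawn from the gate of origin.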

Row | Sequence | polyreactivity (PSR sort gate)
1 | QVQLVESGGGLVQAGGSLRLSCAASGFTLAGYDMGWSRQAPGKERELVATLSTYADSVKGRFTISRDNAKNTVYLQMNSLKPEDTAVYYCAKKYVWTHNYWGQGTQVTVSS | low polyreactivity
2 | QVQLVESGGGLVQAGGSLRLSCAASGFTLARYAMGWYRQAPGKERELVAAITKRGGSTYYADSVKGRFTISRDNAKNTVYLQMNSLKPEDTAVYYCATYKRSSHYDYWGQGTQVTVSS | high polyreactivity
3 | QVQLVESGGGLVQAGGSLRLSCAASGFTLARYAMGWYRQAPGKERELVAGITGGGSTYYADSVKGRFTISRDNAKNTVYLQMNSVKPEDTAVYYCNARTYWKSRLKQYNYWGQVTQVTVSS | high polyreactivity
4 | QVQLVESGGGLVQAGGSLRLSCAASGFTLAYNTMGWYRQAPGKERELVASITSSGTSTYYADSVKGRFTISRDNAKNTVYLQMNSLKPPDTAVYYCAASIWLRYHWGYDYWGQGTQVTVSS | high polyreactivity
5 | QVQLVESGGGLVQAGGSLRLSCAASGFTLDPYAMGWYRQAPGKERELVAAIRLSGSSTYYADSVKGRFTISRDNAKNTVYLQMNSLKPEDTAVYYCAADGISHWMYRYDYWGQGTQVTVSS | low polyreactivity
6 | QVQLVESGGGLVQAGGSLRLSCAASGFTLDWYVMGWYRQAPGKERELVAAISSSGGRTYYADSVKGRFTISRDNAKNTVYLQRNSLKPEDTAVYYCAARNKYGGYPYGYDYWGQGTQVTVSS | high polyreactivity
7 | QVQLVESGGGLVQAGGSLRLSCAASGFTLDWYVMGWYRQAPRKERELFAAISSSGGRTYYADSVKGRFTISRDNAKNSVYLQMNSLKPEDTAVYYCAAGTYYRVGRGRRVSFVYWGQGTQVTVSS | high polyreactivity
8 | QVQLVESGGGLVQAGGSLRLSCAASGFTLEFYAMVWYRQAPGKKRELVARITTYGGSTRYADSVKGRFTISRDNAKNTVYLKMNSLKPEDTAVYNCAARGYGYRNVETYGYWGQGTQVTVSS | high polyreactivity
9 | QVQLVESGGGLVQAGGSLRLSCAASGFTLGCYAMGWYRQAPGKERELVAAITRDGSSTYYADSVKGRFTISRDNAKNTVYLQMNRLKPEDTAVYYCAAERKKKYDYWGQGTQVTVSS | high polyreactivity
10 | QVQLVESGGGLVQAGGSLRLSCAASGFTLGRYAKGWYRQAPGKERELVAAISSGGRTYYADSVKGRFTISRDNAKNTVYLQMNSLKPEDTAVYYCAADPRYISYDYWGQGTQVTVSS | low polyreactivity
11 | QVQLVESGGGLVQAGGSLRLSCAASGFTLGRYAMGWYRQAPGKERELVAAITGRGGTTYYADSVKGRFRISRDNAKNTVYLQMNSLKPEDTAVYYCAADTKLSYQWFDYWGQGTQVTVSS | high polyreactivity
12 | QVQLVESGGGLVQAGGSLRLSCAASGFTLGYNAMGWYRQAPGKERQLVAGITWSGGSTSYADSVKGRFTISRDNAKNTVYLQMNSLKPEDTAVYYCAKLRRYSGWLPWPYAYDYWGLGTQVTVSS | high polyreactivity
13 | QVQLVESGGGLVQAGGSLRLSCAASGFTLGYNVMGWYRQAPGKERELVATICWNGARTYYADSVKGRFTISRDTAKNTVYLQMNSLKPEDTAVYYCAARRYYRGEYDYWGQGTQVTVSS | low polyreactivity
14 | QVQLVESGGGLVQAGGSLRLSCAASGFTLGYYAMGWDRQAPGKERELVASISITAGSTYYAVSVMGRLTISRDNAKNTVYLQMNSLKPEDTAVYYCAAKRRTRQSYYTVYYWGQGTQVTVSS | high polyreactivity
15 | QVQLVESGGGLVQAGGSLRLSCAASGFTLHSYAMGWYRQAPWKERELVAAITRSGGGTYYADSVKGRFTISRDNAKNTVYLQMNSLKPEDTAVYYCAARFGGQYQHDYWGQGTQVTVSS | high polyreactivity
16 | QVQLVESGGGLVQAGGSLRLSCAASGFTLIYYAMGWYRQAPGKERELVAGISRGVSTSYADSVMGRFTISRDNAKNTVYLQMNSLKPEDTAVYYCAAEGSPVDQSSIYDYWGQGTQVTVSS | low polyreactivity
17 | QVQLVESGGGLVQAGGSLRLSCAASGFTLKSYAMGWYRQAPGKERELVASISRRGGSTYYADSVKGRFTISRDNAKNTVYLQMNSLKPEDTAVYYCNADYVRYPGNAYDYWGQGTQVTVSS | high polyreactivity
18 | QVQLVESGGGLVQAGGSLRLSCAASGFTLKWYAMGWYRQAPGKERELVAAINDRGGNTYYADSVKGRFTISRDNAKNTVYLQMNSLKPEDTAVYYCAVRGKTYRPYYYWGQGTQVTVSS | high polyreactivity
19 | QVQLVESGGGLVQAGGSLRLSCAASGFTLLGNTMGWSRQAPGKERELVAAIRTNSGRTYYADSVKGRFTISRDNAKNTVYLQMNSLKPEDTAVYYCNAQSYRSDSAYHYNYDYWGQGTQVTVSS | high polyreactivity
20 | QVQLVESGGGLVQAGGSLRLSCAASGFTLLGNTMGWYRQAPGKERELVAAIRTNSGRTYYADSVKGRFTISRDNAKNTVYLQMNSLKPEDTAVYYCAKRYFSYLGREMDYWGQGTQVTVSS | high polyreactivity
21 | QVQLVESGGGLVQAGGSLRLSCAASGFTLLPYAMGWYRQAPGKERELVAAISRRGVSTYYADSVKGRFTISRDNAKNTVYLQMNSLKPEDTAVYYCATRYFTGYGLRPQFYYWGQGSQVTVSS | high polyreactivity
22 | QVQLVESGGGLVQAGGSLRLSCAASGFTLRLNAMGWYRQAPGKARELVAAITRSGGNTYYADSVKGRFTISRDNAKNTVYLEMNSLKPEDSAVYYCAVRQLDRRSPKYNYWGQGTQVTVSS | high polyreactivity

Row | Sequence | polyreactivity (PSR sort gate)
23 | QVQLVESGGGLVQAGGSLRLSCAASGFTLSYYAMGWYRPAPGKEREFVAAIRTSGTSTYYADSVKGRFTISRDNAKNTVYLQMNSLKPEDTAVYYCAVARGSGWYWRSDYWGQGTQVTVSS | high polyreactivity
24 | QVQLVESGGGLVQAGGSLRLSCAASGFTLVYYVMGWYRQAPGKERELVARISRGGSTNYADSVKGRFTISRDNAKNTVYLQMNSLKPEDTAVYYCAARRTSWQGFNYWGQGTQVTVAS | high polyreactivity
25 | QVQLVESGGGLVQAGGSLRLSCAASGFTLYSNTMGWYRQAPGKERELVAAINYSGGSTYYADSVKGRFTISRDNAKNTVYLQMNSLKPQDTAVYYCATDLHWLVTKYGYWGQGTQVTVSS | low polyreactivity
26 | QVQLVESGGGLVQAGGSLRLSCAASGFTRIYAMGWYRQAPGKERELVAAISQRGGRTYYADSVKGRFTISRDNAKNTVYLQMNSLKPEDTAVYYCNADRRSYNYPEYEYDYWGQGTQVTVSS | high polyreactivity
27 | QVQLVESGGGLVQAGGSLRLSCAASGFTRVVSTMGWYRQAPGKERELVATISYTDGSTYYADAVKGRFTISRDNAKNTDYLQMTSLKPEDTADYYCNASYPSSSYSYHVDYWGQGTQVTVSS | low polyreactivity
28 | QVQLVESGGGLVQAGGSLRLSCAASGFTSAPNAMGWYRQAPGKERELVAAITSSTGRTRYADSVKGRFTISRDNAKNTVYLQMNSLKPEDTAVYYCAVKLLFRGTYEYWGQGTQVTVSS | low polyreactivity
29 | QVQLVESGGGLVQAGGSLRLSCAASGFTSGRNTMGWYRQAPGKERELVAAISSSGGRTYYADSVKGRFTISRDNAKKTVYLQKHRLKAEDPAVYYCNVAGAIKRTIGDYEYWGQGTQVTVSS | high polyreactivity
30 | QVQLVESGGGLVQAGGSLRLSCAASGFTSNYYAMGWYRQAPGKERELVAAITTGGSTHYADSVKGRFTISRDNAKNTVYLQMNSLKPEDTAVYYCAAGTNRQQQRYFHPGGYYQYNYWGQGSQVTVSS | low polyreactivity
31 | QVQLVESGGGLVQAGGSLRLSCAASGFTSQYYAMGWYRQAPGKERELVAAITLRDGSTYYADSVKGRFTISRDNAKNTVYLQMNSMKPEDTAVYYCNTDATSDPYGFGYWGQGTQVTVSS | low polyreactivity
32 | QVQLVESGGGLVQAGGSLRLSCAASGFTSRKNAMGWYSQAPGKERELVAAITQSSGRTYYADSVKGRFTISRDNAKNTVYLQMNSLKPEDTAVYYCAARRGGEDDYWGQGTQVTVSS | low polyreactivity
33 | QVQLVESGGGLVQAGGSLRLSCAASGFTSWYAMGWYRQAPGKERELVAAISSGGSTNYADSVKGRFTISRDNAKNTVYLQLNSLKPEDTAVYYCNAEGYETGVPYFGFYFWGQGTQVTVSS | low polyreactivity
34 | QVQLVESGGGLVQAGGSLRLSCAASGFTSYLYTMGWYRQAPGKERELVATITLRGGSTYYADSVKGRFTISRDNAKNTVYLQMNSLKPEDTAVYYCAAPAYLTSHSRYDYWGQGTQVSVSS | high polyreactivity
35 | QVQLVESGGGLVQAGGSLRLSCAASGFTVYSYPLGWYRQAPGKERELVAAITRSGGITYYADSVKGRFTISRDNAKNTVYLQMNSLKPEDTAVYYCNAYRGGLSSEHYYWGQGTQVTVSS | high polyreactivity
36 | QVQLVESGGGLVQAGGSLRLSCAASGFTYFQYAMGWYRQAPGKERELVAAITSGVSTNYADSVKGRFTISRDNAKNTVYLQMNSLKPEDTAVYYCAADPRYLQSWRGEFAGEYWGQGTQVTVSS | low polyreactivity
37 | QVQLVESGGGLVQAGGSLRLSCAASGFTYFYAMGWYRQAPGKERELVATITINGGRTYYADSVKGRFTISRDNAKNTVYLQMNSLKPEDTAVYYCAAKSWYSYGDWGYYSWGQGTQVTVSS | high polyreactivity
38 | QVQLVESGGGLVQAGGSLRLSCAASGFTYRTNAMGWYRQAPGKERELVAAISTGARTYYADSVKGRFTISRDNAKNTVYLQMNSLKPEDTAVYYCNKVLRRFLSRYDYWGQGTQVTVSS | high polyreactivity
39 | QVQLVESGGGLVQAGGSLRLSCAASGFTYRTYAMGWYRQAPGKERELVAAITVSGGTYYADSVKGRFTISRDNAKNTVYFQMNSLKPEDTAVYYCTAKRFRTGFDYWGQGTQVTVSS | low polyreactivity
40 | QVQLVESGGGLVQAGGSLRLSCAASGFTYYHNVMGWYRQAPGKERELVAAISSGGDTTYYADSVKGRFTISRDNAKNTVSLQKNSLKPEDTAVYYCNADRQIGRYYHFDYWGQGTQVSVSS | high polyreactivity
41 | QVQLVESGGGLVQAGGSLRLSCAASGFVYYVMGWYRQAPGKERELVAAISKGGGRTYYADSVKGRFTISRDNAKNTVYLQMNSLKPEDTAVYYCNADGGLPKYDYWGQGTQVTVSS | high polyreactivity
42 | QVQLVESGGGLVQAGGSLRLSCAASGFYNTMGWYRQAPGKERELVAAISTGGITNYADSVKGRFTISRDNSKNTFYFQMKSLIPEDTAVYYCAADGYSTVSSTYDYWGQGTQVTVSS | low polyreactivity
43 | QVQLVESGGGLVQAGGSLRLSCAASGGIFAANAMGWYRPAPGKERELVAAISRSGGRTYYADSVKGRFTISRDNAKNTVYLQMNSLKPEDTAVYYCAATYQASNAWYDYWGQGTQVTVSS | high polyreactivity
